Measurements: US20220324977A1 (BEIJING SINOGENE BIOTECHNOLOGY, published 2022)
Substitutions are numbered along the chain they refer to.

B1: caninized monoclonal antibody C1 (antibody, V domains shown)
VH: EVQLQQSGAELVKPGASVKLSCTASGFNIKDTYMHWVKQRPEQGLEWIGRIDPAIDNTKYDPKFQGKATITADTSSNTAYLQLSSLTSEDTAVYYCASGFYTMDYWGQGTSVTVSS
VL: QIVLTQSPAIMSASPGEKVTMTCSASSSVTYMYWFQQKPGSSPRLWIYDTSNLVSGVPARFSGSRSGTSYSLTISSMEAEDAATYYCQQYSGHPSSFGSGTKLEIKR
notes: Variable domains as for M1; also called C1(35.38); 35.38
B2: caninized monoclonal antibody C3 (antibody, V domains shown)
VH: B1 VH with Q3R, M34L, V37L, Q39E, D56G, K59R, G66V, T91S, S98R, T102G
VL: B1 VL with T30S, Y33F, F35Y, H93Y, S95Y, S96T, S99G
notes: Variable domains as for M3; also called C3(36.39); 36.39
B3: caninized monoclonal antibody C11 (antibody, V domains shown)
VH: B1 VH with L11V, D56G, T58P, K67R, T102A, Y105C
VL: B1 VL with V29I, Y33F, F35Y, R65K, S75T, H93Y, S96T
notes: Variable domains as for M11; also called C11(37.40); 37.40
B4: PD-1 A-M23 (antibody, mouse IgG1, V domains shown)
VH: B1 VH with Q3R, M34L, V37L, Q39E, D56G, K59R, G66V, T91S, S98R, T102G
VL: QIVLTQSPAIMSASPGEKVTMTCSASSSVSYMFWYQQKPGSSPRLWIYDTSNLVSGVPARFSGSRSGTSYSLTISSMEAEDAATYYCQQYSGYPYTFGGGTKLEIK
notes: Mouse IgG1 kappa, hybridoma supernatant; also called 18A08
B5: PD-1 A-M15 (antibody, mouse IgG1, V domains shown)
VH: B1 VH with Q3R, M34L, V37L, Q39E, D56G, K59R, G66V, T91S, S98R, T102G
VL: B4 VL
notes: Mouse IgG1 kappa, hybridoma supernatant; also called 11E10
B6: PD-1 A-M3 (antibody, mouse IgG1, V domains shown)
VH: B1 VH with Q3R, M34L, V37L, Q39E, D56G, K59R, G66V, T91S, S98R, T102G
VL: B4 VL
notes: Mouse IgG1 kappa, hybridoma supernatant; also called 4G01
B7: PD-1 A-M11 (antibody, V domains shown)
VH: B1 VH with L11V, D56G, T58P, K67R, T102A, Y105C
VL: B4 VL with V29I, S30T, R65K, S75T, Y95S, G99S
notes: Mouse IgG1 kappa, hybridoma supernatant; The VL is therefore uncertain; also called 9B04
B8: PD-1 A-M10 (antibody, mouse IgG1, V domains shown)
VH: B1 VH with Q3R, M34L, V37L, Q39E, D56G, K59R, G66V, T91S, S98R, T102G
VL: B4 VL
notes: Mouse IgG1 kappa, hybridoma supernatant; also called 8H01
B9: PD-1 A-M1 (antibody, mouse IgG1, V domains shown)
VH: B1 VH
VL: B4 VL with S30T, F33Y, Y35F, Y93H, Y95S, T96S, G99S
notes: Mouse IgG1 kappa, tested as hybridoma supernatant; also called 2C08

These binders were tested against T1, canine PD-1 protein amino acids 25-168 with His tag (canine, UniProt A0A090BAM7 25-168) (assay: kinetics, PD-1 His 1000.0 nM).
T1 construct: Expressed in Expi293F cells; used as immunogen and as antigen in ELISA and Octet; also called PD-1 His
T1 sequence (A0A090BAM7 entry or part of it limits assumed): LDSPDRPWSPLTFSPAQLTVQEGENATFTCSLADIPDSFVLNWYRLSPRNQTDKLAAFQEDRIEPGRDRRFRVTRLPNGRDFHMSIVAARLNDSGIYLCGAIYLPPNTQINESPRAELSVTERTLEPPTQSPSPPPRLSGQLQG

Response (nm) | Kd [nM] | koff [s⁻¹] | kon [M⁻¹ s⁻¹] | Binder
0.001 | – | – | – | B1
0.007 | < 0.001 | < 1e-07 | 330 | B2
0.009 | < 0.001 | < 1e-07 | 1470 | B3

What follows are binders tested against T1, canine PD-1 protein amino acids 25-168 … (assay: ELISA, PD-1 His 100 ng/mL, clone supernatant).

O.D. determined by ELISA | Binder
2.58 | B4
2.34 | B5
2.87 | B6
2.66 | B7
2.83 | B8
2.65 | B9

What follows are binders tested against T1, canine PD-1 protein amino acids 25-168 … (assay: kinetics, PD-1 His 1.1 nM).

Response (nm) | Binder
-0.031 | B1
0.002 | B2
-0.003 | B3

Each binder was assayed against T1, canine PD-1 protein amino acids 25-168 … (assay: kinetics, global fit over PD-1 His 1.1-1000 nM).

Kd [nM] | koff [s⁻¹] | kon [M⁻¹ s⁻¹] | Binder
1.59 | 0.401 | 2.51e+08 | B1
< 0.001 | < 1e-07 | 626 | B2
< 0.001 | < 1e-07 | 1190 | B3

What follows are binders tested against T1, canine PD-1 protein amino acids 25-168 … (assay: kinetics, PD-1 His 4.0 nM).

Kd [nM] | Response (nm) | koff [s⁻¹] | kon [M⁻¹ s⁻¹] | Binder
18.4 | 0.005 | 1.27 | 6.93e+07 | B1
– | 0.009 | – | – | B2
– | 0.004 | – | – | B3

Each binder was assayed against T1, canine PD-1 protein amino acids 25-168 … (assay: kinetics, PD-1 His 111.3 nM).

Kd [nM] | Response (nm) | koff [s⁻¹] | kon [M⁻¹ s⁻¹] | Binder
2.06 | 0.016 | 0.000886 | 430000 | B1
< 0.001 | 0.026 | < 1e-07 | 14700 | B2
< 0.001 | 0.025 | < 1e-07 | 23800 | B3

Each binder was assayed against T2, PD1-Fc (canine, UniProt A0A090BAM7 25-168) (assay: Octet BLI competition, competitor PD-L1 Fc on AHC sensor, PD1 Fc 50 nM preincubated with supernatant 1/2).
T2 construct: also called Only Ag (PD1 Fc)
Method: (§1) D-L1 Fc ([…]) was loaded on an AHC sensor for cross-linking assay. Epitope analysis was used to determine the binding of antibodies loaded on the sensor to recombinant antibodies preincubated with PD1-Fc. The binding (response) degrees observed were compared to that of antigen only under the same conditions. If the total response of an antibody was higher than that of antigen only, the antibody would be matched. If the response of an antibody was lower than 80% of that of antigen, the antibody would be blocked with each other.

Response (nm) | Binder
0 | B4
-0.005 | B5
-0.002 | B6
-0.008 | B7
0.006 | B8
-0.009 | B9

Each binder was assayed against T1, canine PD-1 protein amino acids 25-168 … (assay: kinetics, global fit over the PD-1 His series 1.1-1000.0 nM).

Kd [nM] | koff [s⁻¹] | kon [M⁻¹ s⁻¹] | Binder
1.59 | 0.401 | 2.51e+08 | B1
< 0.001 | < 1e-07 | 626 | B2
< 0.001 | < 1e-07 | 1190 | B3

The binders below were run against T1, canine PD-1 protein amino acids 25-168 … (assay: kinetics, PD-1 His 333.3 nM).

Response (nm) | Kd [nM] | koff [s⁻¹] | kon [M⁻¹ s⁻¹] | Binder
-0.004 | – | – | – | B1
0.01 | < 0.001 | < 1e-07 | 1760 | B2
0.012 | < 0.001 | < 1e-07 | 947 | B3

The binders below were run against T1, canine PD-1 protein amino acids 25-168 … (assay: Octet BLI, supernatant captured by anti-mouse IgG Fc, PD-1 His 20 nM).
Method: Octet BMIA was used to determine the affinity of the supernatant of the PD-1A clone culture to PD-1 His. Anti-mouse IgG Fc was added to each clone supernatant to capture competence factors.

Kd [nM] | Response (nm) | koff [s⁻¹] | kon [M⁻¹ s⁻¹] | Binder
0.537 | 0.061 | 0.000159 | 296000 | B4
10.4 | 0.068 | 0.000608 | 58500 | B5
< 0.001 | 0.041 | < 1e-07 | 174000 | B6
0.903 | 0.049 | 0.000312 | 346000 | B7
0.0306 | 0.044 | 6.96e-06 | 227000 | B8
144 | 0.049 | 0.00044 | 3060 | B9

The binders below were run against T2, PD1-Fc (assay: Octet BLI competition, competitor PD-L1 Fc on AHC sensor, against PD1 Fc only).
Method: as §1

% response [%] | Binder
-0.47 | B4
-8.21 | B5
-5 | B6
-16 | B7
12 | B8
-21.9 | B9

The binders below were run against T1, canine PD-1 protein amino acids 25-168 … (assay: kinetics, PD-1 His 37.3 nM).

Kd [nM] | Response (nm) | koff [s⁻¹] | kon [M⁻¹ s⁻¹] | Binder
2.65 | 0.008 | 0.00953 | 3.6e+06 | B1
< 0.001 | 0.017 | < 1e-07 | 40500 | B2
< 0.001 | 0.015 | < 1e-07 | 67600 | B3

What follows are binders tested against T3, PD1 on the surface of T cells (canine PBMC stimulated with ConA) (canine, UniProt A0A090BAM7 25-288) (assay: flow cytometry on ConA-stimulated canine PBMC, stained with anti-CD3-FITC and the caninized antibody, detected with PE-labeled anti-canine IgG; quadrant plot FITC against PE; no unstained or isotype control shown).
T3 construct: also called canine PD-1
T3 sequence (A0A090BAM7 entry or part of it limits assumed): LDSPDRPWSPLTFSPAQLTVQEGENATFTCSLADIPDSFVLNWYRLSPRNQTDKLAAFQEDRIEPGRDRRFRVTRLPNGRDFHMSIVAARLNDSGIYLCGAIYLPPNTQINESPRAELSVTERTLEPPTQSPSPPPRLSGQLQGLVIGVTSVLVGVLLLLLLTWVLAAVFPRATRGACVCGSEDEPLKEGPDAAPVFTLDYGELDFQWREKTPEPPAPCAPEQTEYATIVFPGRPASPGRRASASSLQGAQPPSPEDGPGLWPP
Method: (§2) The cells were stimulated by 0.5 μg/mL ConA for 3 days, and collected. PBMC was incubated with canine-anti-CD3-FITC and caninized monoclonal antibodies C1, C3 and C11 respectively. Then the cells were incubated again with PE-labeled canine-IgG antibody. […] Moreover, the results also indicate that the caninized monoclonal antibodies C1, C3 and C11 have potential blocking effect on the PD1/PD-L1 signaling pathway, and thus have protective effect on the function of T cells (see FIG. 14).

% of cells in quadrant Q2 (Comp-FITC-A positive, Comp-PE-A positive) [%] | Binder
57.9 | B1
53.1 | B2
62.6 | B3

Each binder was assayed against T3, PD1 on the surface of T cells (canine …) (assay: flow cytometry, ConA-stimulated canine PBMC, CD3-FITC and PE-labeled anti-canine IgG).
Method: as §2

PD1 positive cells in T cells [%] | Binder
94.6 | B1
96.2 | B2
96.7 | B3

What follows are binders tested against T1, canine PD-1 protein amino acids 25-168 … (assay: kinetics, PD-1 His 12.4 nM).

Kd [nM] | Response (nm) | koff [s⁻¹] | kon [M⁻¹ s⁻¹] | Binder
2.46 | 0.001 | 0.0198 | 8.05e+06 | B1
– | 0.005 | – | – | B2
< 0.001 | 0.008 | < 1e-07 | 50100 | B3
